Results: patent publication US20240309087A1 (SHANGHAI JUNSHI BIOSCIENCES, published 2024)

T1: hCD112R mFC recombinant protein (human; murine, UniProt Q6DKI7 41-160)
T1 construct: range 41-160; expressed in 293E cells; also called hCD112R ECD mFC; hCD112R-ECD-mFC; not shown: murine IgG2a Fc domain (MX2-mFc vector)
T1 sequence (looked up): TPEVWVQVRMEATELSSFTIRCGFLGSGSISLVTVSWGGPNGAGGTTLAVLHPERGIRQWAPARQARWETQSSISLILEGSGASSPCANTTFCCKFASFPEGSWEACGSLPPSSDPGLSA

T2: human CD112R on Jurkat CD112R effector cells (human, UniProt Q6DKI7 1-326)
T2 sequence (looked up): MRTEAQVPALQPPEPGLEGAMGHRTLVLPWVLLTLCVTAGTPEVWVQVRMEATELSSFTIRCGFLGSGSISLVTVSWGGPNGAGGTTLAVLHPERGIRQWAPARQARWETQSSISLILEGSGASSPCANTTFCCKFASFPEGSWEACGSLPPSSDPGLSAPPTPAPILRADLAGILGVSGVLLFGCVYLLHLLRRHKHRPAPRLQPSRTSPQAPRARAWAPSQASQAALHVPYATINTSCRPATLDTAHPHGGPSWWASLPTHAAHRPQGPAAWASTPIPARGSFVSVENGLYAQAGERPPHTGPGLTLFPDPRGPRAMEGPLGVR


Key:
[1] = biological target: T1, hCD112R mFC recombinant protein; assay: FACS competition, hCD112R mFc on CHO CD112 cells
Description: Unbound antibodies were then washed with a staining buffer and the cells were incubated with 1% (v/v) goat anti-mouse IgG Fc fluorescent secondary antibodies (Jackson ImmunoResearch) prepared in a staining buffer at 4° C. for 30 min in the dark. Finally, the cells were collected by using a flow cytometer, and the fluorescent antibodies bound to the cell surface were detected. Raw data were analyzed by using FlowJo to obtain MFI values, and a four-parameter curve fitting was performed by using GraphPad Prism software to obtain IC₅₀ values.

[2] = biological target: T1, hCD112R mFC recombinant protein; assay: Biacore T200, antibody captured, hCD112R mFc injected
Description: Biacore T200 was used to assay the binding affinity of the anti-CD112R hybridoma antibodies for the recombinant hCD112R mFc protein. […] antibody fragments (Jackson ImmunoResearch) were coupled to the surface of a CM5 chip, and the anti-CD112R hybridoma antibodies were each captured by using the chip, after which recombinant hCD112R mFc proteins at different concentrations were injected into the CM5 chip.

[3] = biological target: T2, human CD112R on Jurkat CD112R effector …; assay: cell-based or functional assay

Binder	IC50 [1] [µg/mL]	Kd [2] [pM]	EC50, CD112R/CD112 NFAT-luciferase reporter [3] [µg/mL]
8D3.1 (antibody, V domains shown, murine hybridoma antibody) VH: QIQLVQSGPELKKPGETVKISCKASGYTFTDYSMHWVKQAPGKGLKWVGWISTETAQPTYADDFRGRFAFSLETSASTAYLQINNLRNEDTATYFCATGNYGWYFSVWGAGTTVTVSS VL: ENVLTQSPAIMSASPGEKVTMTCRATSGVSSSYLFWYQQKSGASPKIWIYSTSNLASGVPTRFSGSGSGTSYSLTISSVEAEDAATYYCQQYSGYPYTFGGGTKLEIK	0.148	15.8	
7C2.1 (antibody, V domains shown) VH: DVKLVESGGGLVKLGGSLKLSCAASGFTFSSYHMSWIRQTPEKRLELVAAINSNGINTYYLDTVKGRFTISRDNAKNTLYLQMSSLKSEDTALYYCARHEDYYGFAMDYWGQGTSVTVSS VL: SIVMTQTPKFLLVSAGDRVTITCKASQSVSNDVAWYQQKPGQSPKLLMYYVSNRFTGVPDRFTGSGYGTDFTFTINTVQAEDLAVYFCQQAYRSPWTFGGGTKLEIK			0.0379
3D2.1 (antibody, V domains shown) VH: DVQLVESGGGLVKLGGSLKLSCVASGFTFSSYHMSWIRQTPEKRLELVAAINSNDINTYYLDTVKGRFTISRDIAKNTLHLQMSSLKSEDTALYYCARHEDYYGFAMDYWGQGTSVTVSS VL: DIQLTQSPASLSVSVGETVTITCRVSANIYSNLVWYHQRQGKSPQLLVYGGTNLADGVPSRFSGSGSGTQFSLKINSLQSEDFGSYHCQHFWSTPYTFGGGTKLEIK			0.0493
5B1.1 (antibody, V domains shown, murine hybridoma antibody) VH: EVQLQQSGAELVRSGTSVTLSCTASGFNIRDYFIHWVKQRPEQGLEWIGWIIPASGDTDCAPIFQGKATLTADTFSNTAYLHLNSLTSEDTAVYYCNTWVWSPYAVDYWGQGTSVTVSS VL: DIVMTQFPSSLSVPVGEKVTMNCKSSQSLLNSGNQKNFLAWYQQKPGQPPKLLIYGASTRESGVPYRFTGSGSGTDFTLTISSVQAEDLAVYYCQNDHSYPWTFGGGTKLEIK	0.147	16.3	

More lines, now with the values ahead:

IC50 [1] [µg/mL]	Kd [2] [pM]	EC50, CD112R/CD112 NFAT-luciferase reporter [3] [µg/mL]	Binder
0.111	9.26	0.0552	4E5.1 (antibody, V domains shown, murine hybridoma antibody) VH: EVMLVESGGGLVKPGGSLKLSCAASGFTFSNYIMSWVRQTPDMRLEWVATISSGGSSTYYVDRVKGGFPFSRDSVKYILYVHTSSLRSADTAIYYCAKHEDWDPLYYYSMDYWGQGTSVTVSS VL: QIVLTQSPTVMSASPGDKVTMTCSASSSVSYMYWFQQKPGSSPRLLIYDTSHLAFGVPSRFSGSRSGTSYSLTISRMEAEDTATYYCQQWTTYPLTFGAGTKLELK
		0.0404	5C10.1 (antibody, V domains shown) VH: DVKLVESGGGLVKLGGSLKLSCAASGFTFSSYHMSWVRQTPEKRLELVAAISRDGDSTYYPDTVKGRFTISRDDAENTLYLQMSSLKSEDTALYYCSRHEDYFGFAMDSWGQGTSVTVSS VL: SIVMTQTPKFLLVSAGDRVTITCKASQSVTNDVAWYQQKPGQSPKLLMYYVSNHYTGVPDRFIGSGYGTDFTFTISTVQAEDLAVYFCQQAYRSPWTFGGGTKLEIK
		0.0507	6A10.1 (antibody, V domains shown) VH: DVKLVESGGGLVKLGGSLKLSCAASGFTFSSYHMSWVRQTPEKRLELVAAINSNVISTYYLDTVKGRFTISRDNAKNTLYLQMSSLKSEDTALYYCARHEDYYGFAMDYWGQGTSVTVSS VL: SIVMTQTPKFLLVSAGDRVTITCKASQSVSNDVAWYQEKPGQSPKLLMYYVSHRFTGVPDRFTGSGYGTDFTFTINTVQAEDLAVYFCHQAYRSPWTFGGGTKLEIK
0.207	23.6		1D11.1 (antibody, V domains shown, murine hybridoma antibody) VH: EVQLQQSGPELVKPGASVKISCKASGYPFINYNIHWLRQSRGKSLEWIGYVYPYNGVPGYNQKFKSKATLTADNSFSTAYMEFRSLTSEDSAVYFCARERGRDYFDSWGQGTSLTVSS VL: DIQLTQSPASLSVSVGETVTITCRVSANIYSNLVWYHQRQGKSPQLLVYGGTNLADGVPSRFSGSGSGTQFSLKINSLQSEDFGSYHCQHFWSTPYTFGGGTKLEIK
0.261	30.2	0.0729	2G10.1 (antibody, V domains shown, murine hybridoma antibody) VH: QVQLQQSGAELVKPGASVKLSCKASGYTFTSHYMYWLKQRPGQGLEWIGEINPSNGDTKFNEKFKSKATLTVDKSSSTAYMQLSSLTSEDSAVYYCTREKDAFSALDYWGQGTSVTDSS VL: DIQMIQSPSSMFASLGDRVSLSCRASQGIRGHLDWYQQKPGGTIKLLIYSTSILNFGVPSRFSGSGSGSDYSLTISSLESEDFADYYCLQRNAYPLTFGAGTKLELK
